# Paper PMC2869534
# Tested on: SNF2h (human)
# Assay: Cy3 fluorescence intensity titration
Substance,binding signal (fold lower K1/2 than apo),K half
"0-601-40 nucleosome, Cy3",3,
"0-601-78 nucleosome, Cy3",,353 nM
